Measured values reported in paper PMC6795507 (Science Advances, 2019).
Where “and” joins values, the source holds several entries; their conditions need not be identical. Equal values may be shown once.

Columns and labels:
[1] = target: head fiber gp14 of phage P68 (Staphylococcus aureus phage P68); test: cryo-EM structure
[2] = target: portal protein gp19 of phage P68 (Staphylococcus aureus phage P68); test: cryo-EM structure
[3] = target: lower collar protein gp18 of phage P68 (Staphylococcus aureus phage P68); test: cryo-EM structure
[4] = target: major capsid protein gp20 of phage P68 (Staphylococcus aureus phage P68); test: cryo-EM structure
[5] = target: tail fiber gp17 of phage P68 (in the virion) (Staphylococcus aureus phage P68); test: cryo-EM structure
crystal structure = target: the molecule itself; test: crystal structure

Question: “head fiber gp14 of phage P68 (natural protein)” was tested. Which stoichiometry N [1] did it give?
Answer: 3

Question: How did the stoichiometry N [2] turn out when “inner core protein gp22 of phage P68 (natural protein)” was run?
Answer: 6

Question: For “lower collar protein gp18 of phage P68 (natural protein)”, which stoichiometry N [3] is on record?
Answer: 12

Question: How did the stoichiometry N [4] turn out when “major capsid protein gp20 of phage P68 (natural protein)” was run?
Answer: 5 and 6

Question: With “portal protein gp19 of phage P68 (natural protein)” as the molecule, how does the stoichiometry N [2] read?
Answer: 12

Question: Which stoichiometry N [5] does the source give for “tail fiber gp17 of phage P68 (in the virion) (natural protein)” here?
Answer: 3

B1: His-tagged tail fiber protein of phage P68 (recombinant) (natural protein)
chain: MAYNENDFKYFDDIRPFLDEIYKTRERYTPFYDDRADYNTNSKSYYDYISRLSKLIEVLARRIWDYDNELKKRFKNWDDLMKAFPEQAKDLFRGWLNDGTIDSIIHDEFKKYSAGLTSAFALFKVTEMKQMNDFKSEVKDLIKDIDRFVNGFELNELEPKFVMGFGGIRNAVNQSINIDKETNHMYSTQSDSQKPEGFWINKLTPSGDLISSMRIVQGGHGTTIGLERQSNGEMKIWLHHDGVAKLLQVAYKDNYVLDLEEAKGLTDYTPQSLLNKHTFTPLIDEANDKLILRFGDGTIQVRSRADVKNHIDNVEKEMTIDNSENNDNRWMQGIAVDGDDLYWLSGNSSVNSHVQIGKYSLTTGQKIYDYPFKLSYQDGINFPRDNFKEPEGICIYTNPKTKRKSLLLAMTNGGGGKRFHNLYGFFQLGEYEHFEALRARGSQNYKLTKDDGRALSIPDHIDDLNDLTQAGFYYIDGGTAEKLKNMPMNGSKRIIDAGCFINVYPTTQTLGTVQELTRFSTGRKMVKMVRGMTLDVFTLKWDYGLWTTIKTDAPYQEYLEASQYNNWIAYVTTAGEYYITGNQMELFRDAPEEIKKVGAWLRVSSGNAVGEVRQTLEANISEYKEFFSNVNAETKHREYGWVAKHQK
Question: With B1 as the molecule, how does the “stoichiometry N” value (crystal structure) read?
Answer: 3
